According to US9890400B2, “Method of production of 2,4-dihydroxybutyric acid” (ADISSEO FRANCE S.A.S., priority 2012, dated 2018):

How the values were obtained:
[1] = substrate: O=CC[C@H](O)C(=O)O; assay: Malate semialdehyde reductase activity; assay type: biochemical, Metallosphaera sedula; settings: other: malate semialdehyde, NADH or NADPH, pH 7.5, 30° C., average of at least two independent experiments
Method: (§1) Test for Malate Semialdehyde Reductase Activity: (L)-Malate semialdehyde+NAD(P)H→(L)-2,4-dihydroxybutyric acid+NAD(P) Reaction scheme:
(§2) The assay mixture contained 200 mM Hepes (pH 7.5), 50 mM KCl, 5 mM MgCl2, 0.24 mM NADH or NADPH, and appropriate amounts of purified enzyme or cell extract. Reactions were started by adding 10 mM (L)-malate semialdehyde (malate semialdehyde was prepared freshly for each test, see Example 3). Enzymatic assays were carried out at 30° C. in 96-well flat bottomed microtiter plates in a final volume of 250 μL. The reactions were followed by the characteristic absorption of NAD(P)H at 340 nm (εNADPH=6.22 mM^−1 cm^−1) in a microplate reader (BioRad 680XR).
Site-directed mutagenesis was carried out using the oligonucleotide pairs listed in Table 6 and the pET28-Mse-SSR plasmid as the template. Point mutations to change the amino acid sequences were introduced by PCR (Phusion 1U, HF buffer 20% (v/v), dNTPs 2.5 mM, direct and reverse primers 1 μM each, template plasmid 200 ng, water). When possible, plasmids created by PCR contained new restriction sites (introduced using silent mutations) in addition to the functional mutation to facilitate identification of mutated clones. The PCR products were digested by DpnI at 37° C. for 2×2 h to remove template DNA, and transformed into NEB DH5-α competent E. coli cells (NEB). The mutated plasmids were identified by restriction site analysis and verified to carry the desired mutations by DNA sequencing.

[2] = substrate: O=CC[C@H](O)C(=O)O; assay: Malate semialdehyde reductase activity; assay type: biochemical, Metallosphaera sedula; settings: other: malate semialdehyde, NADH or NADPH, pH 7.5, 30° C., average of at least two independent experiments; remark: listed apart in the source
Method: To identify a suitable 2,4 DHB dehydrogenase, beta-hydroxyacid dehydrogenases from different biological sources were tested for their ability to reduce malate semialdehyde. […] The genes YPR1, 4hbdh, yqhD, and Ms-SSR were amplified using primers listed in Table 5 and cloned into vector pET28 (restriction enzymes see Table 5) yielding plasmids pET28-Sce-YPR1, pET28-Pgi-4-hbdh, pET28-Eco-yqhd and pET28-Mse-SSR, respectively. The proteins were expressed and purified as described in Example 1.
as §1, §2

[3] = substrate: O=CC(=O)O; assay: Malyl-CoA lyase assay coupled to citrate synthase / DTNB; assay type: biochemical, M. extorquens; settings: other: pH 7.5, 37° C., 1 mM acetyl-CoA
From the text: Construction of plasmids containing wild-type genes coding for malyl-CoA lyase: The DNA sequences of the mcl genes coding for malyl-CoA lyase in M. extorquens (Arps et al., 1993) and Rhodobacter capsulatus (Meister et al., 2005) were optimized for the expression in Escherichia coli using the GENEius software (Eurofins). The optimized sequences were synthesized by Eurofins MWG OPERON® adding NheI and EcoRI restriction sites upstream of the start codon and downstream of the stop codon of mcl, respectively, which allowed direct cloning of the synthesized DNA fragments into the pET28a+ vector (Novagen) using T4 DNA ligase (Biolabs). […]
Malyl-CoA lyase activity was assayed using a method adapted from (Meister et al., 2005). Malyl-CoA synthesis by malyl-CoA lyase was coupled to the citrate synthase-catalyzed release of coenzyme A which was monitored by its spontaneous reaction with DTNB. […]
The reaction mixture according to Assay 1 contained 50 mM MOPS/KOH (pH 7.5), 0.25 mM DTNB, 5 mM MgCl2, 1 mM acetyl-CoA, 20 U/mL citrate synthetase (all products from Sigma), and appropriate amounts of purified malyl-CoA lyase or cell extract. […] The reactions were followed by the characteristic absorption of DNTB at 412 nm (εDNTB+CoA=13.6 mM^−1 cm^−1) in a microplate reader (BioRad 680XR).

[4] = substrate: O=CCCC(=O)O; assay: purified protein, by the assay type; settings: other: oxidative sense, 1 mM NADP, 0.5 mM coenzyme A, pH 9, 37° C., pH 9.0
[5] = substrate: CC(C)(COP(=O)(O)OP(=O)(O)OC[C@H]1O[C@@H](n2cnc3c(N)ncnc32)[C@H](O)[C@@H]1OP(=O)(O)O)[C@@H](O)C(=O)NCCC(=O)NCCSC(=O)CCC(=O)O; assay: purified protein, by the assay type; settings: other: reductive sense, succinyl-CoA added directly, NADPH, pH 7.5, 37° C., pH 7.5
[6] = substrate: O=CC[C@H](O)C(=O)O; assay: purified protein, by the assay type; assay type: biochemical, Sulfolobus tokodaii; settings: other: oxidative sense, 1 mM NADP, 0.5 mM coenzyme A, pH 9, 37° C.
Method: NCBI references of the utilized mcr and sucD protein sequences, and the references for the corresponding natural and synthetic DNA sequences are listed in Table 2.
To purify St-Mcr, frozen cell pellets of expression cultures were resuspended in 0.5 mL of breakage buffer (50 mM Hepes, 300 mM NaCl, pH 7.5) and broken open by four successive rounds of sonication (sonication interval: 20 sec, power output: 30%, sonicator: Bioblock Scientific, VibraCell™ 72437). Cell debris were removed by centrifuging the crude extracts for 15 min at 4° C. at 13000×g and retaining the clear supernatant. Native proteins of E. coli were removed by heat precipitation at 85° C. during 30 min followed by centrifugation at 13000×g. […]
Assay 1 (Reaction Scheme): glyoxylate+acetyl-CoA→malyl-CoA+acetate Malyl-CoA lyase: (L)-Malyl-CoA+NADPH→(L)-Malate semialdehyde+Coenzyme A+NADP Malyl-CoA reductase: Assay 2 (Reaction Scheme): (L)-Malate semialdehyde+Coenzyme A+NADP→(L)-Malyl-CoA+NADPH The reaction mixture according to Assay 1 contained 50 mM MOPS/KOH (pH 7.5), 10 mM glyoxylate, 4 mM acetyl-CoA, 5 mM MgCl2, 0.25 mM NADPH (all products from Sigma), 5 U/mL of malyl-CoA lyase, and appropriate amounts of purified malyl-CoA reductase or cell extract. […] The reactions were followed by the characteristic absorption of NADPH at 340 nm (εNADPH=6.22 mM^−1 cm^−1) in a microplate reader (BioRad 680XR). […]

B1: Metallosphaera sedula succinic semialdehyde reductase (Ms-SSR) mutant H39R, SEQ ID No. 32 (Metallosphaera sedula DSM 5348; H39R) (protein)
chain: MKAAVLHTYKEPLSIEDVNISQPKAGEVKIKVKATGLCRSDVNVFEGKTPVPPPVVAGHEISGIVEEVGPGVTRVKPGDRVISAFIHPCGKCGNCVAGKENLCETFSQVRLKGVMPDGTSRLSKDGKEIRTFLGGGFAEYAIVGENALTRVPEDMDLEKVAVLGCAGLTGYGAISSSKIEPGDTVAVIGVGGVGLSTIQLLRASGAGRIIAVGTKKWKLDRAMELGATDVVNSKEIDPVKAIKEITGGGPQVVIEAGGNEDTIHMALDSVRIGGKVVLVGLPPATAMIPIRVASIVRGGIEVVGNYGGRPRVDMPKLLELVRQGRYDPSRLVTGRFRLEEINEAVKMLEEGEAIRSLIIP
With B1 the Km [1] was 1000 µM.

B2: Metallosphaera sedula succinic semialdehyde reductase (Ms-SSR) double mutant H39R N43H, SEQ ID No. 36 (Metallosphaera sedula DSM 5348; H39R/N43H) (protein)
chain: MKAAVLHTYKEPLSIEDVNISQPKAGEVKIKVKATGLCRSDVHVFEGKTPVPPPVVAGHEISGIVEEVGPGVTRVKPGDRVISAFIHPCGKCGNCVAGKENLCETFSQVRLKGVMPDGTSRLSKDGKEIRTFLGGGFAEYAIVGENALTRVPEDMDLEKVAVLGCAGLTGYGAISSSKIEPGDTVAVIGVGGVGLSTIQLLRASGAGRIIAVGTKKWKLDRAMELGATDVVNSKEIDPVKAIKEITGGGPQVVIEAGGNEDTIHMALDSVRIGGKVVLVGLPPATAMIPIRVASIVRGGIEVVGNYGGRPRVDMPKLLELVRQGRYDPSRLVTGRFRLEEINEAVKMLEEGEAIRSLIIP
Work on B2 yielded a Km [1] of 1000 µM.

B3: Metallosphaera sedula succinic semialdehyde reductase (Ms-SSR) mutant N43H, SEQ ID No. 34 (Metallosphaera sedula DSM 5348; N43H) (protein)
chain: MKAAVLHTYKEPLSIEDVNISQPKAGEVKIKVKATGLCHSDVHVFEGKTPVPPPVVAGHEISGIVEEVGPGVTRVKPGDRVISAFIHPCGKCGNCVAGKENLCETFSQVRLKGVMPDGTSRLSKDGKEIRTFLGGGFAEYAIVGENALTRVPEDMDLEKVAVLGCAGLTGYGAISSSKIEPGDTVAVIGVGGVGLSTIQLLRASGAGRIIAVGTKKWKLDRAMELGATDVVNSKEIDPVKAIKEITGGGPQVVIEAGGNEDTIHMALDSVRIGGKVVLVGLPPATAMIPIRVASIVRGGIEVVGNYGGRPRVDMPKLLELVRQGRYDPSRLVTGRFRLEEINEAVKMLEEGEAIRSLIIP
With B3 the Km [1] was 5000 µM.

B4: Metallosphaera sedula succinic semialdehyde reductase (Ms-SSR), wild type, SEQ ID No. 16 (Metallosphaera sedula DSM 5348) (protein)
chain: MKAAVLHTYKEPLSIEDVNISQPKAGEVKIKVKATGLCHSDVNVFEGKTPVPPPVVAGHEISGIVEEVGPGVTRVKPGDRVISAFIHPCGKCGNCVAGKENLCETFSQVRLKGVMPDGTSRLSKDGKEIRTFLGGGFAEYAIVGENALTRVPEDMDLEKVAVLGCAGLTGYGAISSSKIEPGDTVAVIGVGGVGLSTIQLLRASGAGRIIAVGTKKWKLDRAMELGATDVVNSKEIDPVKAIKEITGGGPQVVIEAGGNEDTIHMALDSVRIGGKVVLVGLPPATAMIPIRVASIVRGGIEVVGNYGGRPRVDMPKLLELVRQGRYDPSRLVTGRFRLEEINEAVKMLEEGEAIRSLIIP
notes: full length 360 aa
B4 was tested, and the Km [2] was 4000 µM.

B5: M. extorquens malyl-CoA lyase (Me-Mcl), wild type, SEQ ID No. 1 (Methylorubrum extorquens AM1) (protein)
chain: MSFTLIQQATPRLHRSELAVPGSNPTFMEKSAASKADVIFLDLEDAVAPDDKEQARKNIIQALNDLDWGNKTMMIRINGLDTHYMYRDVVDIVEACPRLDMILIPKVGVPADVYAIDVLTTQIEQAKKREKKIGFEVLIETALGMANVEAIATSSKRLEAMSFGVADYAASTRARSTVIGGVNADYSVLTDKDEAGNRQTHWQDPWLFAQNRMLVACRAYGLRPIDGPFGDFSDPDGYTSAARRCAALGFEGKWAIHPSQIDLANEVFTPSEAEVTKARRILEAMEEAAKAGRGAVSLDGRLIDIASIRMAEALIQKADAMGGK
notes: full length 324 aa
In the case of B5, the Km [3] is reported as 500 µM and the Vmax [3] is reported as 36 μmol/(min mg prot).

B6: Sulfolobus tokodaii malonyl-CoA reductase (St-Mcr), wild type, SEQ ID No. 7 (Sulfurisphaera tokodaii str. 7) (protein)
chain: MILMRRTLKAAILGATGLVGIEYVRMLSNHPYIKPAYLAGKGSVGKPYGEVVRWQTVGQVPKEIADMEIKPTDPKLMDDVDIIFSPLPQGAAGPVEEQFAKEGFPVISNSPDHRFDPDVPLLVPELNPHTISLIDEQRKRREWKGFIVTTPLCTAQGAAIPLGAIFKDYKMDGAFITTIQSLSGAGYPGIPSLDVVDNILPLGDGYDAKTIKEIFRILSEVKRNVDEPKLEDVSLAATTHRIATIHGHYEVLYVSFKEETAAEKVKETLENFRGEPQDLKLPTAPSKPIIVMNEDTRPQVYFDRWAGDIPGMSVVVGRLKQVNKRMIRLVSLIHNTVRGAAGGGILAAELLVEKGYIEK
notes: full length 359 aa
B6 gave a Km [4] of 1150 µM, a Vmax [4] of 1.7 µmol/min/mg and a Km [5] of 200 µM. It also gave a Vmax [5] of 0.98 ± 0.17 µmol/min/mg, a Km [6] of 250 µM and a Vmax [6] of 0.1 µmol/min/mg.
